Assay results from PMC12463012, “Sequence‐ and Docking‐Site‐Dependent Contributions to Multi‐Site Phosphorylation of an Intrinsically Disordered MAPK Substrate” (Advanced Science, 2025).

Target: the molecule itself
Test: SEC-MALS; SEC-MALLS at 4 °C; 20 µL of JIP1^SH3 at 5.6 mg mL^-1 injected at 0.5 mL min^-1 on Superdex 200 10/300 GL in 50 mM HEPES pH 7.1, 150 mM NaCl, 2 mM DTT

B1: JIP1^SH3 (JIP1 IDR residues 1–450 linked to the SH3 domain of JIP1, residues 489–553, via a (GS)3G linker) (domain or fragment)
chain: GHMMAERESGGLGGGAASPPAASPFLGLHIASPPNFRLTHDISLEEFEDEDLSEITDECGISLQCKDTLSLRPPRAGLLSAGGGGAGSRLQAEMLQMDLIDATGDTPGAEDDEEDDDEERAARRPGAGPPKAESGQEPASRGQGQSQGQSQGPGSGDTYRPKRPTTLNLFPQVPRSQDTLNNNSLGKKHSWQDRVSRSSSPLKTGEQTPPHEHICLSDELPPQSGPAPTTDRGTSTDSPCRRSTATQMAPPGGPPAAPPGGRGHSHRDRIHYQADVRLEATEEIYLTPVQRPPDAAEPTSAFLPPTESRMSVSSDPDPAAYPSTAGRPHPSISEEEEGFDCLSSPERAEPPGGGWRGSLGEPPPPPRASLSSDTSALSYDSVKYTLVVDEHAQLELVSLRPCFGDYSDESDSATVYDNCASVSSPYESAIGEEYEEAPRPQPPACLSEDSTPDGSGSGSGQEQTHRAIFRFVPRHEDELELEVDDPLLVELQAEDYWYEAYNMRTGARGVFPAYYAIEVTKEPEH
notes: extension left at the N-terminus after TEV cleavage; (GS)3G linker that replaces residues 451-488 of JIP1; Residues 451-488 of JIP1 replaced by the glycine-serine linker because they are prone to aggregation; also called JIP1^SH3 dimer; not shown: thioredoxin, N-terminal, cleaved; His6, N-terminal, cleaved
  stoichiometry N: 2
